# Assay results: patent US20210130436A1 (published 2021)
# Numbering of substitutions follows the chain as printed. In names and notes the source's numbering stands.
# T1: CD96 (UniProt P40200 22-585, limits assumed)
# T1 construct: whole, on cells
# T1 sequence (looked up): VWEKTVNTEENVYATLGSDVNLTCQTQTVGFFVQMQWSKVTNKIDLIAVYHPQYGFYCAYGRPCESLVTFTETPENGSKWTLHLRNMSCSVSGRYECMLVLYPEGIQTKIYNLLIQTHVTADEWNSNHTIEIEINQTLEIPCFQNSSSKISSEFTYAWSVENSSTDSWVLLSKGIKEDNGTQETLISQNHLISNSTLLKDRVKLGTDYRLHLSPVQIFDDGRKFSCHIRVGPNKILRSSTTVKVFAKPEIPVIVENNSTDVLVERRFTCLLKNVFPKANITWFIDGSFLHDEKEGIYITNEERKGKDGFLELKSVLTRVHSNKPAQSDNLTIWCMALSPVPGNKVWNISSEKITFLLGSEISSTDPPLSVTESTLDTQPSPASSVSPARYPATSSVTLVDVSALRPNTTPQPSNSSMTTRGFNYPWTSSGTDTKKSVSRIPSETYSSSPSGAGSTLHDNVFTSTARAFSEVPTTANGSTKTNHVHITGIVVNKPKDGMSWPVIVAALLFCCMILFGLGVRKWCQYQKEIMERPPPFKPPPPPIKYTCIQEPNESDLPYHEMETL
# T2: CD226 (UniProt Q15762 19-336)
# T2 construct: whole, on cells
# T2 sequence (looked up): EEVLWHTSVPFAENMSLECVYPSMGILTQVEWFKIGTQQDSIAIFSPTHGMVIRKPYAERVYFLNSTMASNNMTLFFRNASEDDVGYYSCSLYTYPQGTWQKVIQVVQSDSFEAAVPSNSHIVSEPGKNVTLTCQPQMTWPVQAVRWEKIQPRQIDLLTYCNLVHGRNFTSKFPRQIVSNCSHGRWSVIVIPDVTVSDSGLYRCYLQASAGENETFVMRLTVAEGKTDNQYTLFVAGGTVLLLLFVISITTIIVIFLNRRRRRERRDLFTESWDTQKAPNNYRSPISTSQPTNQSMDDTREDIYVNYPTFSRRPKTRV
# T3: TIGIT (UniProt Q495A1 22-244)
# T3 construct: whole, on cells
# T3 sequence (looked up): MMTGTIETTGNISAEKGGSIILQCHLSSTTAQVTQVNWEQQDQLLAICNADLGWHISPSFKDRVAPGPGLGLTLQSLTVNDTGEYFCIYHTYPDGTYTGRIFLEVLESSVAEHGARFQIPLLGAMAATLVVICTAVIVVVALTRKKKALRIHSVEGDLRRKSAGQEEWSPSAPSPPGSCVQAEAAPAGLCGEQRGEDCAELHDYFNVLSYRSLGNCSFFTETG
# B1: CD80 E35D/M47V/N48K/V68M/K89N IgV-Fc, (EAAAK)3 linker (Fc fusion, not shown: a dimerising Fc or GST)
# chain: VIHVTKEVKEVATLSCGHNVSVEELAQTRIYWQKDKKMVLTMMSGDVKIWPEYKNRTIFDITNNLSIMILALRPSDEGTYECVVLKYENDAFKREHLAEVTLSVKADEAAAKEAAAKEAAAK
# B2: variant CD80 IgV-Fc E35D/T41S/D46E/M47I/V68M/K93R/E95V (Fc fusion, not shown: small tags and cut ends; a dimerising Fc or GST)
# chain: VIHVTKEVKEVATLSCGHNVSVEELAQTRIYWQKDKKMVLSMMSGEINIWPEYKNRTIFDITNNLSIMILALRPSDEGTYECVVLKYEKDAFRRVHLAEVTLSVKAD
# B3: variant CD80 IgV-Fc E35D/M47L/Y53F/V68M/A71G/K93R/E95V (Fc fusion, not shown: small tags and cut ends; a dimerising Fc or GST)
# chain: B2 chain with S41T, E46D, I47L, Y53F, A71G
# B4: variant CD80 IgV-Fc E35D/M47V/N48K/V68M/L85M (Fc fusion, not shown: small tags and cut ends; a dimerising Fc or GST)
# chain: B2 chain with S41T, E46D, I47V, N48K, L85M, R93K, V95E
# B5: variant CD80 IgV-Fc H18Y/V22D/E35D/M47V/N48K/V68M (Fc fusion, not shown: small tags and cut ends; a dimerising Fc or GST)
# chain: B2 chain with H18Y, V22D, S41T, E46D, I47V, N48K, R93K, V95E
# B6: variant CD80 IgV-Fc H18Y/E35D/V68M/T79M/L85M (Fc fusion, not shown: small tags and cut ends; a dimerising Fc or GST)
# chain: B2 chain with H18Y, S41T, E46D, I47M, T79M, L85M, R93K, V95E
# B7: variant CD80 IgV-Fc E35D/M43I/M47L/V68M (Fc fusion, not shown: small tags and cut ends; a dimerising Fc or GST)
# chain: B2 chain with S41T, M43I, E46D, I47L, R93K, V95E
# B8: variant CD80 IgV-Fc E35D/M47V/N48K/V68M/A71G/L85M (Fc fusion, not shown: small tags and cut ends; a dimerising Fc or GST)
# chain: B2 chain with S41T, E46D, I47V, N48K, A71G, L85M, R93K, V95E
# B9: CD155 S42A variant IgV-Fc fusion (Fc fusion, not shown: a dimerising Fc or GST)
# chain: WPPPGTGDVVVQAPTQVPGFLGDSVTLPCYLQVPNMEVTHVAQLTWARHGESGSMAVFHQTQGPSYSESKRLEFVAARLGAELRNASLRMFGLRVEDEGNYTCLFVTFPQGSRSVDIWLRVL
# B10: CD155 S42V/S52E variant IgV-Fc fusion (Fc fusion, not shown: a dimerising Fc or GST)
# chain: B9 chain with A42V, S52E
# B11: CD155 S42N variant IgV-Fc fusion (Fc fusion, not shown: a dimerising Fc or GST)
# chain: B9 chain with A42N
# B12: CD155 S42L variant IgV-Fc fusion (Fc fusion, not shown: a dimerising Fc or GST)
# chain: B9 chain with A42L
# B13: CD155 S42C/S52M/Q62F variant IgV-Fc fusion (Fc fusion, not shown: a dimerising Fc or GST)
# chain: B9 chain with A42C, S52M, Q62F
# B14: CD155 S42N/S52E/V57L/L104E variant IgV-Fc fusion (Fc fusion, not shown: a dimerising Fc or GST)
# chain: B9 chain with A42N, S52E, V57L, L104E
# B15: CD155 S42G/S52L/Q62F/L104Q variant IgV-Fc fusion (Fc fusion, not shown: a dimerising Fc or GST)
# chain: B9 chain with A42G, S52L, Q62F, L104Q
# B16: variant CD80 IgV-Fc E35D/M43I/M47V/K89N (Fc fusion, not shown: small tags and cut ends; a dimerising Fc or GST)
# chain: B2 chain with S41T, M43I, E46D, I47V, M68V, K89N, R93K, V95E
# notes: Fc fusion of the variant IgV
# B17: variant CD80 IgV-Fc Q33L/E35D/M43I/Y53F/T62S/L85Q (Fc fusion, not shown: small tags and cut ends; a dimerising Fc or GST)
# chain: VIHVTKEVKEVATLSCGHNVSVEELAQTRIYWLKDKKMVLTMISGDMNIWPEFKNRTIFDISNNLSIVILALRPSDEGTYECVVQKYEKDAFKREHLAEVTLSVKAD
# notes: Fc fusion of the variant IgV
# B18: variant CD80 IgV-Fc E35D/M47V/T62A/A71D/K93E (Fc fusion, not shown: small tags and cut ends; a dimerising Fc or GST)
# chain: B17 chain with L33Q, I43M, M47V, F53Y, S62A, A71D, Q85L, K93E
# notes: Fc fusion of the variant IgV
# B19: variant CD80 IgV-Fc E35D/M38T/M43V/M47V/N48R/L85Q (Fc fusion, not shown: small tags and cut ends; a dimerising Fc or GST)
# chain: B17 chain with L33Q, M38T, I43V, M47V, N48R, F53Y, S62T
# notes: Fc fusion of the variant IgV
# B20: variant CD80 IgV-Fc Q33R/E35D/M47V/N48K/L85M/F92L (Fc fusion, not shown: small tags and cut ends; a dimerising Fc or GST)
# chain: B17 chain with L33R, I43M, M47V, N48K, F53Y, S62T, Q85M, F92L
# notes: Fc fusion of the variant IgV
# Target: T4, human CD28 (human, UniProt P10747 19-220)
# T4 construct: Endogenous CD28 on Jurkat/IL2 reporter cells
# Experiment: flow cytometry on Jurkat cells (CD28)
row,MFI at 33.3 nM [MFI],Binder
1,1280,B1

# Target: T5, human CTLA4 (huCTLA4), full-length, stably expressed on CHO cells (human, UniProt P16410 36-223)
# T5 construct: whole, on cells
# Experiment: flow cytometry, CHO cells expressing huCTLA4
# T5 sequence (P16410 36-223): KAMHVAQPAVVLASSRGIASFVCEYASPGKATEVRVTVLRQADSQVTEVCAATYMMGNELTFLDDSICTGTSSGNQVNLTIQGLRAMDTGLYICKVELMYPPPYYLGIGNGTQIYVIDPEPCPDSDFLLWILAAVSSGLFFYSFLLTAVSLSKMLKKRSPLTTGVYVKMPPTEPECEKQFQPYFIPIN
row,MFI at 33.3 nM [MFI],Binder
1,18400,B2
2,16000,B3
3,15600,B4
4,15800,B5
5,16300,B6
6,16200,B7
7,16600,B8

# Target: T6, human PD-L1 (huPD-L1), full-length, stably expressed on CHO cells (human, UniProt Q9NZQ7 19-290)
# T6 construct: whole, on cells
# Experiment: flow cytometry, CHO cells expressing huPD-L1
# T6 sequence (Q9NZQ7 19-290): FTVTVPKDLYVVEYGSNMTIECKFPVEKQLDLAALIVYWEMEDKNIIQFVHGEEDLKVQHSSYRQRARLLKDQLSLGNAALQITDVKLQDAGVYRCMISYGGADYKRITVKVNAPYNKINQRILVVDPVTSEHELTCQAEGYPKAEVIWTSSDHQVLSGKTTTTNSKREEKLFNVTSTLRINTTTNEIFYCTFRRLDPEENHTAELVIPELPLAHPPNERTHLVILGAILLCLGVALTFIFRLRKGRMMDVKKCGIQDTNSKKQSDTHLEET
row,MFI at 33.3 nM [MFI],Binder
1,14800,B2
2,25000,B3
3,7620,B4
4,12900,B5
5,14900,B6
6,16900,B7
7,22800,B8

# Target: T7, human CTLA-4 (human, UniProt P16410 36-223)
# T7 construct: also called huCTLA4
# Experiment: flow cytometry on CHO cells stably expressing CTLA4
# T7 sequence (P16410 36-223): as the sequence (P16410 36-223) above
row,MFI at 33.3 nM [MFI],Binder
1,27100,B1

# Target: T8, human PD-L1 (human, UniProt Q9NZQ7 19-290)
# T8 construct: also called huPD-L1; CD274
# Experiment: flow cytometry on CHO cells stably expressing PD-L1
# T8 sequence (Q9NZQ7 19-290): as the sequence (Q9NZQ7 19-290) above
row,MFI at 33.3 nM [MFI],Binder
1,24500,B1

# Target: T9, CD28, endogenously expressed on Jurkat/IL2 reporter cells (human, UniProt P10747 19-220)
# T9 construct: whole, on cells
# Experiment: flow cytometry, Jurkat/IL2 reporter cells (endogenous CD28)
row,MFI at 33.3 nM [MFI],Binder
1,476,B2
2,383,B3
3,245,B4
4,257,B5
5,1040,B6
6,1520,B7
7,302,B8

# Target: T1, CD96
# Experiment: flow cytometry on cells expressing CD96, Fc fusion at 100 nM
row,MFI at 100 nM [MFI],Binder
1,1620,B9
2,2530,B10
3,1690,B11
4,1620,B12
5,1480,B13
6,1540,B14
7,1640,B15

# Target: T2, CD226
# Experiment: flow cytometry on cells expressing CD226, Fc fusion at 100 nM
row,MFI at 100 nM [MFI],Binder
1,2190,B9
2,2270,B10
3,1910,B11
4,2190,B12
5,2080,B13
6,1740,B14
7,2160,B15

# Target: T3, TIGIT
# Experiment: flow cytometry on cells expressing TIGIT, Fc fusion at 100 nM
row,MFI at 100 nM [MFI],Binder
1,1930,B9
2,2060,B10
3,1820,B11
4,1930,B12
5,1860,B13
6,1780,B14
7,1920,B15

# Target: T6, human PD-L1 (huPD-L1), full-length, …
# Experiment: flow cytometry; MFI on PD-L1 CHO cells over MFI on Jurkat cells (CD28)
row,Ratio of PDL1:CD28 [ratio],Binder
1,31.1,B2
2,65.3,B3
3,31.1,B4
4,50.1,B5
5,14.3,B6
6,11.1,B7
7,75.4,B8

# Target: T10, human PD-L1, expressed on CHO cells (human, UniProt Q9NZQ7 19-290)
# T10 construct: Full-length surface expression construct transduced by lentivirus into CHO cells; also called huPD-L1; CD274
# Experiment: flow cytometry on CHO cells stably expressing human PD-L1; PE anti-human Fc
# T10 sequence (Q9NZQ7 19-290): as above
row,MFI at 33.3 nM [MFI],Binder
1,19200,B16
2,72100,B17
3,693,B18
4,21800,B19
5,21400,B20

# Target: T11, human CTLA-4 (CTLA4), expressed on CHO cells (human, UniProt P16410 36-223)
# T11 construct: Full-length surface expression construct transduced by lentivirus into CHO cells; also called huCTLA4
# Experiment: flow cytometry on CHO cells stably expressing human CTLA-4; PE anti-human Fc
# T11 sequence (P16410 36-223): as the sequence (P16410 36-223) above
row,MFI at 33.3 nM [MFI],Binder
1,278000,B16
2,3980,B17
3,226000,B18
4,204000,B19
5,2680,B20

# Target: T5, human CTLA4 (huCTLA4), full-length, …
# Experiment: flow cytometry, CHO cells expressing huCTLA4; MFI against WT CD80 of the table
row,Fold change to WT CD80 [fold],Binder
1,10.5,B2
2,9.1,B3
3,8.9,B4
4,9,B5
5,9.3,B6
6,9.3,B7
7,9.5,B8

# Target: T6, human PD-L1 (huPD-L1), full-length, …
# Experiment: flow cytometry, CHO cells expressing huPD-L1; MFI against WT CD80 of the table
row,Fold change to WT CD80 [fold],Binder
1,287,B2
2,486,B3
3,148,B4
4,250,B5
5,290,B6
6,328,B7
7,442,B8

# Target: T9, CD28, endogenously expressed on …
# Experiment: flow cytometry, Jurkat/IL2 reporter cells (endogenous CD28); MFI against WT CD80 of the table
row,Fold change to WT CD80 [fold],Binder
1,15.2,B2
2,12.2,B3
3,7.8,B4
4,8.2,B5
5,33.2,B6
6,48.3,B7
7,9.6,B8
